The values below come from publication PMC3214623.

In assay [1] the target is human beta-2 microglobulin (human) (UniProt P61769). The assay is described as follows: radioligand binding.
Assay [2] deals with porcine beta-2 microglobulin (pig) (UniProt Q07717). As to the kind of experiment: radioligand binding.
Sequence of UniProt Q07717 (Q07717 21-118): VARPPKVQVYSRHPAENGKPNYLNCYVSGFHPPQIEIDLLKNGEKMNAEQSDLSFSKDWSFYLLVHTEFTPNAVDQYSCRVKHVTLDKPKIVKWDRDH

Sequence of UniProt P61769 (P61769 21-119): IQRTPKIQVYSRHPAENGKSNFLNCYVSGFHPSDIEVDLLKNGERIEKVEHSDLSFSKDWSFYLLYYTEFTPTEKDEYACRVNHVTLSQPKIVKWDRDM

For the substance “HLA-A*11:01 heavy chain, residues 1-275 (HHH) (domain or fragment)”, the affinity (half-saturation of the heavy chain titration) was 1.07 nM in assay [1] and 2.11 nM in assay [2].
In the same order, the values of “chimeric MHC-I heavy chain HHP (HLA-A*11:01 α1α2, SLA-1*0401 α3) (domain or fragment)” are 1.19 nM and 0.774 nM.
